Results taken from the supplement of paper PMC7877785.
± gives the uncertainty stated by the source.

Test: self-splicing fitness, log relative to wild type (ln ratio); higher = more splicing; Tetrahymena group I intron in knt gene, E. coli kanamycin selection, DiMSum; sequences stand for … in CUCUCU…GGAGGGAAAAGUUAUCAGGCAUGCACCUGGUAGCUAGUCUUUAAACCAAUAGAUUGCAUCGGUUUAAAAGGCAAGACCGUCAAAUUGCGGGAAAGGGGUCAACAGCCGUUCAGUACCAAGUCUCAGGGGAAACUUUGAGAUGGCCUUGCAAAGGGUAUGGUAAUAAGCUGACGGACAUGGUCCUAACCACGCAGCCAAGUCCUAAGUCAACAGAUCUUCUGUUGAUAUGGAUGCAGUUCACAGACUAAAUGUCGGUCGGGGAAGAUGUAUUCUUCUCAUAAGAUAUAGUCGGACCUCUCCUUAAUGGGAGCUAGCGGAUGAAGUGAUGCAACACUGGAGCCGCUGGGAACUAAUUUGUAUGCGAAAGUAUAUUGAUUAGUUUUGGAGUACUCGUGGUCG
Summary of the method: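 DiMSum derived fitness as the error-weighted combination of fold changes across replicates, kanamycin versus no kanamycin, normalised to wild type. E. coli BL21(DE3) held the library, which randomised all eight P1ex-region intron nucleotides within the knt kanamycin-resistance gene on pET-22b(+). Six replicate transformations grew overnight at 37°C or 30°C on LB agar with or without 25 μg/mL kanamycin, also containing 100 μg/mL carbenicillin, 50 μM IPTG and 0.2% rhamnose, and pooled colonies were amplicon-sequenced on an Illumina HiSeq 2500.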

| Sequence | self-splicing fitness (ln) (30 °C) | self-splicing fitness (ln) (37 °C) |
| --- | --- | --- |
| AAGAAGCAAUAUUACGCGGA | -2.71 ± 0.16 | -0.37 ± 0.12 |
| CCCUAGCAAUAUUACGGGGU | -2.49 ± 0.092 | -2.91 ± 0.12 |
| CUACAGCAAUAUUACGCUGG | -3.11 ± 0.097 | -2.66 ± 0.15 |
| GGUGAGCAAUAUUACGAAUA | -2.09 ± 0.33 |  |
| CACAAGCAAUAUUACGCCGA | -3.39 ± 0.26 | -0.917 ± 0.15 |
| CAUAAGCAAUAUUACGCUGG | -2.08 ± 0.18 | -2.03 ± 0.17 |
| AAGAAGCAAUAUUACGUUCC | -1.29 ± 0.14 | 0.0973 ± 0.19 |
| GCAGAGCAAUAUUACGCCAA | -2.73 ± 0.38 | -2.72 ± 0.44 |
| GGCUAGCAAUAUUACGCCGA | -1.8 ± 0.28 | -1.05 ± 0.25 |
| CUAAAGCAAUAUUACGCCAG | -0.416 ± 0.13 | 0.13 ± 0.19 |
| CAGAAGCAAUAUUACGUGCA | -2.49 ± 0.14 | -1.75 ± 0.14 |
| UGUAAGCAAUAUUACGGUGA | -2.08 ± 0.11 | -0.909 ± 0.13 |
| CUCCAGCAAUAUUACGUUUG | -3.57 ± 0.12 | -2.1 ± 0.11 |
| GCGAAGCAAUAUUACGCUCA | -1.48 ± 0.28 | -2.25 ± 0.33 |
| CAUAAGCAAUAUUACGGGUA | -3.36 ± 0.21 | -2.64 ± 0.17 |
| UUACAGCAAUAUUACGGAGA | -1.79 ± 0.1 | -1.11 ± 0.13 |
| AGUAAGCAAUAUUACGCACG | -1.43 ± 0.1 | -0.219 ± 0.12 |

| Sequence | self-splicing fitness (ln) (30 °C) | self-splicing fitness (ln) (37 °C) |
| --- | --- | --- |
| CAAAAGCAAUAUUACGUAGA | -1.88 ± 0.078 | -1.97 ± 0.12 |
| GAACAGCAAUAUUACGCCAU | -3.82 ± 0.2 | -2.14 ± 0.18 |
| AAACAGCAAUAUUACGUCGC | -3.37 ± 0.21 | -2.92 ± 0.23 |
| CCUGAGCAAUAUUACGUGCG | -3.69 ± 0.22 | -1.04 ± 0.16 |
| AGUAAGCAAUAUUACGCAAG | -2.99 ± 0.16 | -1.88 ± 0.19 |
| CCACAGCAAUAUUACGUAGG | -2.62 ± 0.093 | -2.18 ± 0.14 |
| CCAAAGCAAUAUUACGGCAU | -3.72 ± 0.15 | -2.23 ± 0.15 |
| AUGGAGCAAUAUUACGAGAG |  | -2.04 ± 0.23 |
| UUUUAGCAAUAUUACGCAAG | -1.08 ± 0.15 | -1.14 ± 0.21 |
| UCGUAGCAAUAUUACGUCGA | -2.49 ± 0.17 | -1.91 ± 0.15 |
| CACGAGCAAUAUUACGUCCU | -3.93 ± 0.3 | -2.81 ± 0.29 |
| GCCGAGCAAUAUUACGGCGA | -0.848 ± 0.21 | -1.42 ± 0.24 |
| GUUUAGCAAUAUUACGUCCU | -1.12 ± 0.24 | -1.03 ± 0.25 |
| AUCCAGCAAUAUUACGCUAG | -2.76 ± 0.11 | -1.11 ± 0.12 |
| GCUAAGCAAUAUUACGAUAG | -1.25 ± 0.13 | -1.63 ± 0.17 |
| ACGGAGCAAUAUUACGCUGU |  | -2.56 ± 0.25 |
| UUGCAGCAAUAUUACGACCU | -0.892 ± 0.1 | -0.129 ± 0.15 |
